Earlier results, collected in publication PMC10054347.
pKd: −log10 of the molar value.

Tests used:
[1] = target: T1, NELF-E (Drosophila) (Drosophila melanogaster (Fruit fly)) (UniProt P92204); settings: HiTS-RAP; 10 mM HEPES pH 7.5, 100 mM NaCl, 25 mM KCl, 5 mM MgCl2, 0.02% Tween-20, RT
T1 sequence: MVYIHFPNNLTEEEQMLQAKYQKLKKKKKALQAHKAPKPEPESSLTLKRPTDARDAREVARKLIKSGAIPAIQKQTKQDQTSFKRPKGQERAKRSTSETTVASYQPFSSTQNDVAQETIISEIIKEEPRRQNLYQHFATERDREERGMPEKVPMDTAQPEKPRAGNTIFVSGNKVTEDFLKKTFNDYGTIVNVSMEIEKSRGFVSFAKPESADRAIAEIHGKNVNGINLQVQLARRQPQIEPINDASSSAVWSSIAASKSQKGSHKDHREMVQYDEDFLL

[2] = target: CD63 large extracellular loop (Homo sapiens (Human)) (UniProt P08962); test: ELONA; settings: binding buffer, 37 C, 1 h; protein adsorbed on plate
[3] = target: T2, Aspartyl/asparaginyl beta-hydroxylase, human (Homo sapiens (Human)) (UniProt Q12797); test: flow; settings: HeLa-ASPH cells; DPBS, 5 mM MgCl2, glucose, BSA, tRNA
T2 sequence: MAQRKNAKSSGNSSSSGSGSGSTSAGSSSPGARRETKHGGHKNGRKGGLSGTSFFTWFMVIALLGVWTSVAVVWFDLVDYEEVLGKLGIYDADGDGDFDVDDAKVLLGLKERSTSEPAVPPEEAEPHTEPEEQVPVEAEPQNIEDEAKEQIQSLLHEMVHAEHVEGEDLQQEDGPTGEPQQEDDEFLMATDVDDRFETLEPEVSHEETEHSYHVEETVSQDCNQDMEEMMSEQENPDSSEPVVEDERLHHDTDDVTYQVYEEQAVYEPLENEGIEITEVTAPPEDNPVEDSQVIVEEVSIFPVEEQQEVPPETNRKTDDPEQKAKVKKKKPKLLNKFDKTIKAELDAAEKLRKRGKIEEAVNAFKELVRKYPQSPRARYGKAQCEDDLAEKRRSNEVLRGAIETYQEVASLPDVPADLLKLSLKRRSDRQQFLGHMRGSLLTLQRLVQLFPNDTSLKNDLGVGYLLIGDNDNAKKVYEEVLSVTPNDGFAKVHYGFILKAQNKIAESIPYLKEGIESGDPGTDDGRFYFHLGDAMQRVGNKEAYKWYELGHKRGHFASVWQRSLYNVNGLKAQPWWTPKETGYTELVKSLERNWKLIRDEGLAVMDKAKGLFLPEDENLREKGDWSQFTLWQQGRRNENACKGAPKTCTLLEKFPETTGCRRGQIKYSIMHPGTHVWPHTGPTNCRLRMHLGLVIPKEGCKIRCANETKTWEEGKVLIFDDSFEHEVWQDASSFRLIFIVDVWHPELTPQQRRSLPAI

[4] = target: Lactoferrin (bovine milk) (Bos taurus (Bovine)) (UniProt P24627); test: SPR
[5] = target: alpha-thrombin (light + heavy chain) (Homo sapiens (Human)) (UniProt P00734+P00734); test: SPR; settings: 2'-F pyrimidines; 10 mM HEPES-KOH pH 7.5, 100 mM KCl; protein amine-coupled on CM5, BSA reference
[6] = target: MMP14 (MT1-MMP) (Homo sapiens (Human)) (UniProt P50281); test: flow; settings: 293T-MMP14 cells; PBS, 10% FCS, 0.02% NaN3, 37 C, 30 min
[7] = target: T3, FGFR3b ectodomain, human (Homo sapiens (Human)) (UniProt P22607); test: flow; settings: 2'-F pyrimidines; 3'-inverted dT (not in strands); 5'-thiol; protein on protein G beads; DPBS / FACS buffer, 1 h, 37 C; apparent Kd
T3 sequence: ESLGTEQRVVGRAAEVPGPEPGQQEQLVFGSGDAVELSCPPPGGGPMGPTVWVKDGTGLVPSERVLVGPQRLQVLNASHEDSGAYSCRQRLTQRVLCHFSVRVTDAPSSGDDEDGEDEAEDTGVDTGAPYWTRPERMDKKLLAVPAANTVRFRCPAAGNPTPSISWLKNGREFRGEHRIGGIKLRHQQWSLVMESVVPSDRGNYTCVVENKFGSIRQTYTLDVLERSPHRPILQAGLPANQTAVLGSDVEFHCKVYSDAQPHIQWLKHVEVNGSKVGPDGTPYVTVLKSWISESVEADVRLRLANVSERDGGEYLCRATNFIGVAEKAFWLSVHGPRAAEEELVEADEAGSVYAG

[8] = target: T4, FGFR3c ectodomain, mouse (Mus musculus (Mouse)) (UniProt Q61851); test: flow; settings: 2'-F pyrimidines; 3'-inverted dT (not in strands); 5'-thiol; protein on protein G beads; DPBS / FACS buffer, 1 h, 37 C; apparent Kd
T4 sequence: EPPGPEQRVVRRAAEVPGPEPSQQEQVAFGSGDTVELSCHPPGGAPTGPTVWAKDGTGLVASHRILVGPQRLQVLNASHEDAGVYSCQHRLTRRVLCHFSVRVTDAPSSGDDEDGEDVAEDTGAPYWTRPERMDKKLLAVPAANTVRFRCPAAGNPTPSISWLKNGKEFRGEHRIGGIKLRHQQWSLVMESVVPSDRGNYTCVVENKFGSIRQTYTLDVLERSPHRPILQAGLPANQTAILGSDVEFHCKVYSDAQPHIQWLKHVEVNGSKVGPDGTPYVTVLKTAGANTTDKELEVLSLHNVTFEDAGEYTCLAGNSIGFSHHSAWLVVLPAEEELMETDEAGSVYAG

[9] = target: T5, SIRT1, human (Homo sapiens (Human)) (UniProt Q96EB6); test: SPR; settings: circular (ligated 40-mer, ESI Fig 4); 100 mM NaCl, 5 mM MgCl2, pH 7.4, 25 C
T5 sequence: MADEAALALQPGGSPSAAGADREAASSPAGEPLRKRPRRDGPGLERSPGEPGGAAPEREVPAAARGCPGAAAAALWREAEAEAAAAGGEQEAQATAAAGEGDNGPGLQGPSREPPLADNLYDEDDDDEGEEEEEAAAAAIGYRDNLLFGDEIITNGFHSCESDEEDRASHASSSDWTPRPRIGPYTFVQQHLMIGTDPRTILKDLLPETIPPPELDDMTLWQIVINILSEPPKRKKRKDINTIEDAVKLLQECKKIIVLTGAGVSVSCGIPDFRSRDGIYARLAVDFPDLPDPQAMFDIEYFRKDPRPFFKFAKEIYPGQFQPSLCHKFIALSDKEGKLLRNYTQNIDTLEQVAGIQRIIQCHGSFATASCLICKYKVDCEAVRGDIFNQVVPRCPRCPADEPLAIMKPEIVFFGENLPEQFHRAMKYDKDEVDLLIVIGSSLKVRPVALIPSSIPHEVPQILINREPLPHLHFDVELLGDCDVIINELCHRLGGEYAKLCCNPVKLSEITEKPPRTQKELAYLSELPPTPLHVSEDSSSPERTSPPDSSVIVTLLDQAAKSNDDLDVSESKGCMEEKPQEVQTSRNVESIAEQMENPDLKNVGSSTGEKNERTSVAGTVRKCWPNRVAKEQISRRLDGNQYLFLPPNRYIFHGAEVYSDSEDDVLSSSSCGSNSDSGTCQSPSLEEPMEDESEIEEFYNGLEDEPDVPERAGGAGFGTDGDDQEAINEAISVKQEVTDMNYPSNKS

[10] = target: TGF-beta1 (mature) (Homo sapiens (Human)) (UniProt P01137); test: SPR; settings: 2'-F pyrimidines; 10 mM HEPES-KOH pH 7.5, 100 mM KCl; protein amine-coupled on CM5, BSA reference
[11] = target: PDGFR-alpha ectodomain (human) (Homo sapiens (Human)) (UniProt P16234); test: SPR; settings: 2'-F pyrimidines; 30 mM Tris-HCl pH 7.5, 150 mM NaCl, 5 mM MgCl2; aptamer on SA chip
[12] = target: T6, C5a anaphylatoxin (human) (Homo sapiens (Human)) (UniProt P01031); test: SPR; settings: all L-RNA (Spiegelmer); 5' 40 kDa branched PEG via aminohexyl linker
T6 sequence: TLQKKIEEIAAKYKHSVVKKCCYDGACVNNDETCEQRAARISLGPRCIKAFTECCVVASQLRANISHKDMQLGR

[13] = target: T7, C5a anaphylatoxin (mouse) (Mus musculus (Mouse)) (UniProt P06684); test: SPR; settings: all L-RNA (Spiegelmer); 5' 40 kDa branched PEG via aminohexyl linker
T7 sequence: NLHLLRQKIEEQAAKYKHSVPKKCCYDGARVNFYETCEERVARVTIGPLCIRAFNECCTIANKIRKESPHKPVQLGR

[14] = target: T8, RNA-binding protein Hfq (YmaH) K2E (Bacillus subtilis (strain 168)) (UniProt O31796); test: EMSA
T8 sequence: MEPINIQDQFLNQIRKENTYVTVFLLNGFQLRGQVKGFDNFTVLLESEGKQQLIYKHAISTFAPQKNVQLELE

[15] = target: PD-L1 (human) (Homo sapiens (Human)) (UniProt Q9NZQ7); test: flow; settings: MDA-MB-231 PD-L1 over-expressing cells, 4 C, 1 h
[16] = target: Integrin alpha5 beta1 ectodomain (Homo sapiens (Human)) (UniProt P08648+P05556); test: SPR; settings: 2'-F pyrimidines; PBS 10 mM, 150 mM NaCl, 1 mM MgCl2, 0.005% P20, 25 C
[17] = target: Double homeobox protein 4 (human), full length (Homo sapiens (Human)) (UniProt Q9UBX2); test: FP; settings: hairpin with CCC bulge
[18] = target: T9, Epithelial cell adhesion molecule (EpCAM) (Homo sapiens (Human)) (UniProt P16422); test: flow; settings: DPBS, 4.5 g/L glucose, 5 mM MgCl2, 10% FBS, 37 C; HepG2 cells overexpressing EpCAM
T9 sequence: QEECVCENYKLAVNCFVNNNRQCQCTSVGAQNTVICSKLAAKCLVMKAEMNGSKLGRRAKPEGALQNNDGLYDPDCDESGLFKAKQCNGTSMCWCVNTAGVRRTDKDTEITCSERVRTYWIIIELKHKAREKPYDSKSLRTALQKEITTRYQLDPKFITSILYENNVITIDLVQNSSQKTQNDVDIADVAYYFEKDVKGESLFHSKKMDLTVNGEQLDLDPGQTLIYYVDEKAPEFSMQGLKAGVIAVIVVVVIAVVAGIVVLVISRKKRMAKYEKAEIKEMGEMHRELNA

Sequence of TGF-beta1 (mature) (Homo sapiens (Human)) (P01137 279-390): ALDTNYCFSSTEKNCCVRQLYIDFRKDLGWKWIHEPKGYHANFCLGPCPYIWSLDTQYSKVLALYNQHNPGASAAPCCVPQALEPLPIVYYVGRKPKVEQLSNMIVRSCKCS
Sequence of Lactoferrin (bovine milk) (Bos taurus (Bovine)) (P24627 20-708): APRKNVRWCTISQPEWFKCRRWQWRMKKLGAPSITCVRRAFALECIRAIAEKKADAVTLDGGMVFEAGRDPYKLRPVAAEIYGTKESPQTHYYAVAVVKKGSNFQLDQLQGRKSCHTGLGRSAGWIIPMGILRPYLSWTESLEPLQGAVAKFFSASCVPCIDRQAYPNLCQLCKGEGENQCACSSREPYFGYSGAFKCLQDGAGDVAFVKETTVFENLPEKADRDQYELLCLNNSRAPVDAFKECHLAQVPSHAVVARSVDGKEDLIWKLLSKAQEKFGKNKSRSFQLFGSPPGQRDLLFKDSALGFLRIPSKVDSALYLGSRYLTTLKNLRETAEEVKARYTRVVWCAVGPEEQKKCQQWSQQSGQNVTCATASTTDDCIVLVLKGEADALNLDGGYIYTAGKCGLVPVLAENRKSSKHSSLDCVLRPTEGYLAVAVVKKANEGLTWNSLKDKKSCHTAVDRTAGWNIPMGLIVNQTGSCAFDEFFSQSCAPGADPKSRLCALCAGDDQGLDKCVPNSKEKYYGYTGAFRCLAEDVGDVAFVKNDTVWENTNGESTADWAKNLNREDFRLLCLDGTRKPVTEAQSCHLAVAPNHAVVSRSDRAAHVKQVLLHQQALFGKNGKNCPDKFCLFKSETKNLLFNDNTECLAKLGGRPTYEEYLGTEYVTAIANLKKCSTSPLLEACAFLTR
Sequence of Integrin alpha5 beta1 ectodomain (Homo sapiens (Human)) (P08648 42-995, chain 1 of 2): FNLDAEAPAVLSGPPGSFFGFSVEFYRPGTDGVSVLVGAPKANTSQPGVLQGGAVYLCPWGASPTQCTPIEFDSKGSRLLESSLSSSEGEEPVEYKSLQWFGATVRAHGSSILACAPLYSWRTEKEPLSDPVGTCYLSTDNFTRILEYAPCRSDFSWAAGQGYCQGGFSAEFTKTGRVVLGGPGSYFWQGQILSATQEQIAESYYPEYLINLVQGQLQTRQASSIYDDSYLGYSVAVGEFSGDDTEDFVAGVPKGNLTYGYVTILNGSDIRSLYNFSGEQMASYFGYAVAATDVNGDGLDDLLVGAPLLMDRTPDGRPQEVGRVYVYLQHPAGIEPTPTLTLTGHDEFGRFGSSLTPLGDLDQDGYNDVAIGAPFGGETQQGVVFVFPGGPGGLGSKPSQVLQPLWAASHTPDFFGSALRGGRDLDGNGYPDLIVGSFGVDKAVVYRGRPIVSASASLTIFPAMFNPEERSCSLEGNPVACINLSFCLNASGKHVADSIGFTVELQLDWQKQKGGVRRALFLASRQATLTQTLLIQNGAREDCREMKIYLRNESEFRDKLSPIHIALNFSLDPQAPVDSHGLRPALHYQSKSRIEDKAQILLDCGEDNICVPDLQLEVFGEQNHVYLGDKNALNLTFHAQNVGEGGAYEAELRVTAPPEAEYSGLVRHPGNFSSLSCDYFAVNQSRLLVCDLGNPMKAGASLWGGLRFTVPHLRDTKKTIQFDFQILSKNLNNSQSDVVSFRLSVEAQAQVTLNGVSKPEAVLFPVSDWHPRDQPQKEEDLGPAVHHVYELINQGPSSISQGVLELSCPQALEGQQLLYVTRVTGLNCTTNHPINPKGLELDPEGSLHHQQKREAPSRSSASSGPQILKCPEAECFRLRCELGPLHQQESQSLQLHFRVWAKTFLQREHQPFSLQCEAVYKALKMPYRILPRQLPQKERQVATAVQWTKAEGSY
Sequence of Integrin alpha5 beta1 ectodomain (Homo sapiens (Human)) (P05556 21-728, chain 2 of 2): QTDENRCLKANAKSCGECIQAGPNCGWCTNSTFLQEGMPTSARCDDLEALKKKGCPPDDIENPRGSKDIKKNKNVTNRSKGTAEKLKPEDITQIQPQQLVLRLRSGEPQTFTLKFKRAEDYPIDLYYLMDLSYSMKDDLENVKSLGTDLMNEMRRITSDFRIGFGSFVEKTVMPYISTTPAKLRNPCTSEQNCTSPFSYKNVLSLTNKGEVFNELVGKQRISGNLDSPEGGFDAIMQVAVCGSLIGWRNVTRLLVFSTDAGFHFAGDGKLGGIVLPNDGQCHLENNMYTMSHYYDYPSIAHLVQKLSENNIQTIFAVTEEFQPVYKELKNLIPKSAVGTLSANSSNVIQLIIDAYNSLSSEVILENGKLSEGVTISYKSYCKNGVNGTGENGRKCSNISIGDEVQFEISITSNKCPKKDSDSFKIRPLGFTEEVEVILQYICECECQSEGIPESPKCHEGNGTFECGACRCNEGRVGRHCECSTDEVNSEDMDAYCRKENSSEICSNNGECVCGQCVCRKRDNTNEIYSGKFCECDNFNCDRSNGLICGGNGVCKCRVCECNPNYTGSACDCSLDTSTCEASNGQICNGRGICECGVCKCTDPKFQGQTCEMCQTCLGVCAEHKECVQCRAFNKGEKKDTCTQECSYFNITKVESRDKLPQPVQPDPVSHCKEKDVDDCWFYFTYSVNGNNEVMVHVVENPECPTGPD
Sequence of CD63 large extracellular loop (Homo sapiens (Human)) (P08962 103-203): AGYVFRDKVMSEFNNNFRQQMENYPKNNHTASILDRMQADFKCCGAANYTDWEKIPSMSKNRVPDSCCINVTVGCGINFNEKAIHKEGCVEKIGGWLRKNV
Sequence of PD-L1 (human) (Homo sapiens (Human)) (Q9NZQ7 19-290): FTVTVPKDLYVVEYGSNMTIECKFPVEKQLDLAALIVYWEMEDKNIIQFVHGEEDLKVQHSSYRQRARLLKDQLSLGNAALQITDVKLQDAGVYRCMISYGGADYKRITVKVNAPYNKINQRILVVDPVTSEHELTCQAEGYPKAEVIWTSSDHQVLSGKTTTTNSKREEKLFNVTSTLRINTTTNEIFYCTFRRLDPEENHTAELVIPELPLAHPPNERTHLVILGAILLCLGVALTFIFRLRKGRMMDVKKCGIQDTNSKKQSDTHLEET
Sequence of Double homeobox protein 4 (human), full length (Homo sapiens (Human)) (Q9UBX2 whole entry): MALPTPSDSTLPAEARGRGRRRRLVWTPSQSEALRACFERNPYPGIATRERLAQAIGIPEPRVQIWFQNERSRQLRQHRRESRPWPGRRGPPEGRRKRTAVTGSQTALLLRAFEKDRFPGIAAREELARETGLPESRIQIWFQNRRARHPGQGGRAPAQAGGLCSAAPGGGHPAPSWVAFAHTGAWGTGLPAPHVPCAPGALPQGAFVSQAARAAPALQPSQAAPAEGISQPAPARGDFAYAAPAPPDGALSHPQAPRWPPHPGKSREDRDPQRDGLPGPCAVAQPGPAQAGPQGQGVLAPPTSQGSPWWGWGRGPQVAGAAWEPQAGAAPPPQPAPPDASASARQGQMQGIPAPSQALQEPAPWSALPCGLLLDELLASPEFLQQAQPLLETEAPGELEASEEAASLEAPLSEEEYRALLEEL
Sequence of PDGFR-alpha ectodomain (human) (Homo sapiens (Human)) (P16234 24-524): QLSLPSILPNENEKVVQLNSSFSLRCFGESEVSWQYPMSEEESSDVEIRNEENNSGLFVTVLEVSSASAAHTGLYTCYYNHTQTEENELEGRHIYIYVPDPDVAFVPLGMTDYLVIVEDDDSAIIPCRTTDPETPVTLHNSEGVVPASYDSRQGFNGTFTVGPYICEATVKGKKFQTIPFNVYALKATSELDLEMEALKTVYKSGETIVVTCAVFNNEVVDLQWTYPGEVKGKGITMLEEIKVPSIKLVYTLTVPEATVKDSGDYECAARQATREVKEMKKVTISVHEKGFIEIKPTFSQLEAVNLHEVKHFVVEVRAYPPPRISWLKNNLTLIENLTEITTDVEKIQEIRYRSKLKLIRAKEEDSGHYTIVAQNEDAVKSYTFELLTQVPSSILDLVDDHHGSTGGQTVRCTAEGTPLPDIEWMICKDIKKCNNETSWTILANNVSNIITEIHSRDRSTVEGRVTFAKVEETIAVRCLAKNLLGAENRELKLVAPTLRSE

GGGAAUGGAUCCACAUCUACGAAUUCCCAACGACUGCCGAGCGAGAUUACGCUUGAGCGCCCCACUGAGGAUGCCCACGGGCGAUUGGGGCACGGCUUCACUGCAGACUUGACGAAGCUU [NELFapt (full length)]
pKd [1]: 8.28

GCTGGACTCACCTCGACCAGAGCCATTGGGTTTCCTAGGAAATAGGGCCTTTACTATGAGCGAGCCTGGCG [LL4A]
pKd [2]: 7.07

ATACCAGCTTATTCAATTCGGGACAAGACAACGAACGAACAGGAAGAGAACCGGAATGCAGACGTCAGGGAGATAGTAAGTGCAATCT [AP-Cell 1]
pKd [3]: 7.32

GCAGGACACCGTAACACGGGCTGATGCTCTCTTTATTTTACCTAAATAAAGTGTCCTGC [YFL-4 (Lac-A1), truncated 59-mer]
pKd [4]: 9.02

CCUUUGGUUCGGAUAAUUAUUAAGUAUUGUCUUCAUUCA [Tbn#3]
pKd [5]: 8.85

AGGGCCCGACGTGACGGCACGTCGGATATCTCATGCGTGT [M17]
pKd [6]: 8.30

GCCGAUGGUUUUGUGGCCGUUUGAGGUUCCUACGGC [iR3]
pKd [7]: 7.32 | pKd [8]: 7.44

CGAGTGGGTTACATCGAAACTGGATCTCAACAGCGGTAAC [AC3 (C3)]
pKd [9]: 9.57

UGGUAAUUUGUCGUUUAUACGGGUCCUCGCAUCUUCCUA [TGF#2 (probable)]
pKd [10]: 8.00

GGGAGAGCGGAAGCGUGCUGGGCCUGCUCUUUAAUAAACCCACUUUCGAACAUCAGCGUAUGUCCAUAACCCAGAGGUGAUGGAUCCCCC [PDR3]
pKd [11]: 9.60

GCCUGAUGUGGUGGUGAAGGGUUGUUGGGUGUCGACGCACAGGC [NOX-D19]
pKd [12]: 8.86 | pKd [13]: 10.29

GGGACACAAUGGACGUAGAGAGAGAUUAGAUCCUGUCCGCGGCUAUAACGGCCGACAUGAGAG [m49f]
pKd [14]: 8.00

ACCGACCGTGCTGGACTCATCTCGCTTTTTTCACGGTCCACACTACTATGAGCGAGCCTGGCG [XQ-P3]
pKd [15]: 7.81

GGUUACCAGCCUUCACUGCGGACGGACAGAGAGUGCAACCUGCCGUGCCGCACCACGGUCGGUCACAC [H02-2'F]
pKd [16]: 7.14

AGCTAACTTAATCAACCGCAGGTTGATTAACCCGTTAGC [DUX4_CTT_R7CCC]
pKd [17]: 7.70

AACAGAGGGACAAACGGGGGAAGATTTGACGTCGACGACA [EP166]
pKd [18]: 5.26
